# Assay results from patent publication US20230406933A1 (RANDOX LABORATORIES, published 2023).
# Legend:
# [1] = biological target: PD-L1 on the cell surface in the Promega PD1/PD-L1 Blockade Bioassay (Cat# J1250); test: cell-based or functional assay
# [2] = biological target: T1, PDL1 coated in the commercial PD1:PDL1 inhibition assay (Acro Biosystems Cat# EP-101) (Homo sapiens (Human), UniProt Q9NZQ7 19-238); test: Acro Biosystems PD1:PDL1 inhibition assay; PDL1 coated, biotinylated PD1 as competitor; reference Avelumab
# T1 construct: Kit reagent; construct not described
binder,measurement,setting,value
"humanised 32.1A1 clone (VHH, CDRs of 32.1A1 grafted into a model human VH3 framework; Expressed from pScreen, purified by IMAC, detected with anti-Myc HRP; also called hum-32.1A1; hum32.1A1) VHH: QVQLVESGGGLVQPGGSLRLSCAASGRTFREYGMGWFRQAPGKGLEWVATISSSGSYSYYADSVKGRFTISRDNSKNTLYLQMNSLRAEDTAVYYCAASSLLRGSSSRAESYDSWGQGTLVTVSS","EC50 of luciferase activity fold change, Promega PD-1/PD-L1 blockade bioassay, panel GS542",[1],0.165 µg/mL
same,amount of blocking relative to Avelumab,[2],10 fold
